{"source": "the Human Domainome abundance scans (Beltran et al. 2025)", "parents": {"B1": {"name": "Neutrophil cytosol factor 2, residues 456 to 514; numbered along this chain, P19878 (parent)", "chain": "LKKGSQVEALFSYEATQPEDLEFQEGDIILVLSKVNEEWLEGECKGKVGIFPKVFVEDC"}}, "note": "± gives the uncertainty stated by the source."}
{"variants_of": "B1", "assay": "abundance fitness (aPCA) (normalised: wild type 0, dead -1); higher = more abundant; growth selection in yeast, the domain comes from the species named", "details": "Homo sapiens"}
{"variant": "LKKGSQVEALFSYEATQPEDLEFQEGDIILVLSKGNEEWLEGECKGKVGIFPKVFVEDC", "note": "[V35G]", "abundance fitness": "-0.613 ± 0.11"}
{"variant": "LKKGSQVEALFSYEATQPEDLEFQEGDIILVLSKMNEEWLEGECKGKVGIFPKVFVEDC", "note": "[V35M]", "abundance fitness": "-0.081 ± 0.24"}
{"variant": "LKKGSQVEALFSYEATQPEDLEFQEGDIILVLSKANEEWLEGECKGKVGIFPKVFVEDC", "note": "[V35A]", "abundance fitness": "-0.074 ± 0.1"}
{"variant": "LKKGSQVEALFSYEATQPEDLEFQEGDIILVLSKYNEEWLEGECKGKVGIFPKVFVEDC", "note": "[V35Y]", "abundance fitness": "-0.69 ± 0.17"}
{"variant": "LKKGSQVEALFSYEATQPEDLEFQEGDIILVLSKDNEEWLEGECKGKVGIFPKVFVEDC", "note": "[V35D]", "abundance fitness": "-0.588 ± 0.17"}
{"variant": "LKKGSQVEALFSYEATQPEDLEFQEGDIILVLSKQNEEWLEGECKGKVGIFPKVFVEDC", "note": "[V35Q]", "abundance fitness": "-0.302 ± 0.32"}
{"variant": "LKKGSQVEALFSYEATQPEDLEFQEGDIILVLSSVNEEWLEGECKGKVGIFPKVFVEDC", "note": "[K34S]", "abundance fitness": "-0.37 ± 0.1"}
{"variant": "LKKGSQVEALFSYEATQPEDLEFQEGDIILVLSRVNEEWLEGECKGKVGIFPKVFVEDC", "note": "[K34R]", "abundance fitness": "-0.47 ± 0.12"}
{"variant": "LKKGSQVEALFSYEATQPEDLEFQEGDIILVLSWVNEEWLEGECKGKVGIFPKVFVEDC", "note": "[K34W]", "abundance fitness": "-0.437 ± 0.31"}
{"variant": "LKKGSQVEALFSYEATQPEDLEFQEGDIILVLSTVNEEWLEGECKGKVGIFPKVFVEDC", "note": "[K34T]", "abundance fitness": "0.4 ± 0.097"}
{"variant": "LKKGSQVEALFSYEATQPEDLEFQEGDIILVLSYVNEEWLEGECKGKVGIFPKVFVEDC", "note": "[K34Y]", "abundance fitness": "-0.589 ± 0.15"}
{"variant": "LKKGSQVEALFSYEATQPEDLEFQEGDIILVLSVVNEEWLEGECKGKVGIFPKVFVEDC", "note": "[K34V]", "abundance fitness": "0.467 ± 0.071"}
{"variant": "LKKGSQVEALFSYEATQPEDLEFQEGDIILVLSKVAEEWLEGECKGKVGIFPKVFVEDC", "note": "[N36A]", "abundance fitness": "-0.063 ± 0.14"}
{"variant": "LKKGSQVEALFSYEATQPEDLEFQEGDIILVLSKVREEWLEGECKGKVGIFPKVFVEDC", "note": "[N36R]", "abundance fitness": "-0.963 ± 0.19"}
{"variant": "LKKGSQVEALFSYEATQPEDLEFQEGDIILVLSKVMEEWLEGECKGKVGIFPKVFVEDC", "note": "[N36M]", "abundance fitness": "-0.43 ± 0.28"}
{"variant": "LKKGSQVEALFSYEATQPEDLEFQEGDIILVLSKVCEEWLEGECKGKVGIFPKVFVEDC", "note": "[N36C]", "abundance fitness": "-0.761 ± 0.15"}
{"variant": "LKKGSQVEALFSYEATQPEDLEFQEGDIILVLSKVTEEWLEGECKGKVGIFPKVFVEDC", "note": "[N36T]", "abundance fitness": "-0.867 ± 0.22"}
{"variant": "LKKGSQVEALFSYEATQPEDLEFQEGDIILVLSKVFEEWLEGECKGKVGIFPKVFVEDC", "note": "[N36F]", "abundance fitness": "-0.446 ± 0.11"}
{"variant": "LKKGSQVEALFSYEATQPEDLEFQEGDIILVLSKVSEEWLEGECKGKVGIFPKVFVEDC", "note": "[N36S]", "abundance fitness": "-0.586 ± 0.11"}
{"variant": "LKKGSQVEALFSYEATQPEDLEFQEGDIILVLSKVWEEWLEGECKGKVGIFPKVFVEDC", "note": "[N36W]", "abundance fitness": "-0.712 ± 0.27"}
{"variant": "LKKGSQVEALFSYEATQPEDLEFQEGDIILVLSKVHEEWLEGECKGKVGIFPKVFVEDC", "note": "[N36H]", "abundance fitness": "-0.276 ± 0.13"}
{"variant": "LKKGSQVEALFSYEATQPEDLEFQEGDIILVLSKVGEEWLEGECKGKVGIFPKVFVEDC", "note": "[N36G]", "abundance fitness": "-0.103 ± 0.094"}
{"variant": "LKKGSQVEALFSYEATQPEDLEFQEGDIILVLSKVYEEWLEGECKGKVGIFPKVFVEDC", "note": "[N36Y]", "abundance fitness": "-0.754 ± 0.2"}
{"variant": "LKKGSQVEALFSYEATQPEDLEFQEGDIILVLSKVKEEWLEGECKGKVGIFPKVFVEDC", "note": "[N36K]", "abundance fitness": "0.093 ± 0.23"}
{"variant": "LKKGSQVEALFSYEATQPEDLEFQEGDIILVLSKVVEEWLEGECKGKVGIFPKVFVEDC", "note": "[N36V]", "abundance fitness": "-0.686 ± 0.18"}
{"variant": "LKKGSQVEALFSYEATQPEDLEFQEGDIILVLSKVDEEWLEGECKGKVGIFPKVFVEDC", "note": "[N36D]", "abundance fitness": "-0.477 ± 0.17"}
{"variant": "LKKGSQVEALFSYEATQPEDLEFQEGDIILVLSKVPEEWLEGECKGKVGIFPKVFVEDC", "note": "[N36P]", "abundance fitness": "-1.03 ± 0.29"}
{"variant": "LKKGSQVEALFSYEATQPEDLEFQEGDIILVLSKVLEEWLEGECKGKVGIFPKVFVEDC", "note": "[N36L]", "abundance fitness": "-0.968 ± 0.2"}
{"variant": "LKKGSQVEALFSYEATQPEDLEFQEGDIILVLSKVNSEWLEGECKGKVGIFPKVFVEDC", "note": "[E37S]", "abundance fitness": "-0.527 ± 0.12"}
{"variant": "LKKGSQVEALFSYEATQPEDLEFQEGDIILVLSKVNWEWLEGECKGKVGIFPKVFVEDC", "note": "[E37W]", "abundance fitness": "-0.279 ± 0.35"}
{"variant": "LKKGSQVEALFSYEATQPEDLEFQEGDIILVLSKVNREWLEGECKGKVGIFPKVFVEDC", "note": "[E37R]", "abundance fitness": "-0.22 ± 0.11"}
{"variant": "LKKGSQVEALFSYEATQPEDLEFQEGDIILVLSKVNIEWLEGECKGKVGIFPKVFVEDC", "note": "[E37I]", "abundance fitness": "-0.445 ± 0.17"}
{"variant": "LKKGSQVEALFSYEATQPEDLEFQEGDIILVLSKVNCEWLEGECKGKVGIFPKVFVEDC", "note": "[E37C]", "abundance fitness": "-0.109 ± 0.15"}
{"variant": "LKKGSQVEALFSYEATQPEDLEFQEGDIILVLSKVNGEWLEGECKGKVGIFPKVFVEDC", "note": "[E37G]", "abundance fitness": "-0.277 ± 0.12"}
{"variant": "LKKGSQVEALFSYEATQPEDLEFQEGDIILVLSKVNYEWLEGECKGKVGIFPKVFVEDC", "note": "[E37Y]", "abundance fitness": "-0.345 ± 0.34"}
{"variant": "LKKGSQVEALFSYEATQPEDLEFQEGDIILVLSKVNNEWLEGECKGKVGIFPKVFVEDC", "note": "[E37N]", "abundance fitness": "0.241 ± 0.13"}
{"variant": "LKKGSQVEALFSYEATQPEDLEFQEGDIILVLSKVNLEWLEGECKGKVGIFPKVFVEDC", "note": "[E37L]", "abundance fitness": "-0.645 ± 0.15"}
{"variant": "LKKGSQVEALFSYEATQPEDLEFQEGDIILVLSKVNVEWLEGECKGKVGIFPKVFVEDC", "note": "[E37V]", "abundance fitness": "0.085 ± 0.099"}
{"variant": "LKKGSQVEALFSYEATQPEDLEFQEGDIILVLSKVNFEWLEGECKGKVGIFPKVFVEDC", "note": "[E37F]", "abundance fitness": "-0.697 ± 0.2"}
{"variant": "LKKGSQVEALFSYEATQPEDLEFQEGDIILVLSKVNHEWLEGECKGKVGIFPKVFVEDC", "note": "[E37H]", "abundance fitness": "-0.328 ± 0.14"}
{"variant": "LKKGSQVEALFSYEATQPEDLEFQEGDIILVLSKVNPEWLEGECKGKVGIFPKVFVEDC", "note": "[E37P]", "abundance fitness": "-0.903 ± 0.27"}
{"variant": "LKKGSQVEALFSYEATQPEDLEFQEGDIILVLSKVNTEWLEGECKGKVGIFPKVFVEDC", "note": "[E37T]", "abundance fitness": "-0.171 ± 0.14"}
{"variant": "LKKGSQVEALFSYEATQPEDLEFQEGDIILVLSKVNMEWLEGECKGKVGIFPKVFVEDC", "note": "[E37M]", "abundance fitness": "-0.506 ± 0.22"}
{"variant": "LKKGSQVEALFSYEATQPEDLEFQEGDIILVLSKVNDEWLEGECKGKVGIFPKVFVEDC", "note": "[E37D]", "abundance fitness": "0.069 ± 0.12"}
{"variant": "LKKGSQVEALFSYEATQPEDLEFQEGDIILVLSKVNAEWLEGECKGKVGIFPKVFVEDC", "note": "[E37A]", "abundance fitness": "-0.42 ± 0.14"}
